The results in this text go back to patent publication US20220275417A1 (BARCODEBODY, published 2022).

First the molecules themselves.
B1: anti-GFP-FLAG-barcode 2 (VHH)
VHH: QVQLVESGGALVQPGGSLRLSCAASGFPVNRYSMRWYRQAPGKEREWVAGMSSAGDRSSYEDSVKGRFTISRDDARNTVYLQMNSLKPEDTAVYYCNVNVGFEYWGQGTQVTVSS
notes: also called anti-GFP nanobody
B2: anti-CD4-FLAG (VHH)
VHH: EVQLVESGGGSVQPGGSLTLSCGTSGRTFNVMGWFRQAPGKEREFVAAVRWSSTGIYYTQYADSVKSRFTISRDNAKNTVYLEMNSLKPEDTAVYYCAADTYNSNPARWDGYDFRGQGTQVTVSS
notes: Secreted from Pichia pastoris with the alpha-factor signal, which is cleaved during secretion; also called Anri-CD4-FLAG; anti-CD4 nanobody with no barcode
B3: anti-CD4 with barcode 4-3 (VHH)
VHH: B2 VHH
notes: secreted from Pichia pastoris
B4: anti-CD4 with barcode 4-1 (VHH)
VHH: B2 VHH
notes: secreted from Pichia pastoris
B5: anti-CD4 with barcode 4-4 (VHH)
VHH: B2 VHH
notes: secreted from Pichia pastoris
B6: anti-CD4 with barcode 4-2 (VHH)
VHH: B2 VHH
notes: secreted from Pichia pastoris
B7: anti-CD4 with barcode 4-6 (VHH)
VHH: B2 VHH
notes: secreted from Pichia pastoris
B8: anti-CD4 with barcode 4-5 (VHH)
VHH: B2 VHH
notes: secreted from Pichia pastoris
B9: anti-CD4 with barcode 4-7 (VHH)
VHH: B2 VHH
notes: secreted from Pichia pastoris
B10: anti-CD4 with barcode 4-8 (VHH)
VHH: B2 VHH
notes: secreted from Pichia pastoris
B11: anti-CD4-FLAG-barcode 1 (VHH)
VHH: B2 VHH
notes: Secreted from Pichia pastoris with the alpha-factor signal, which is cleaved during secretion; also called anti-CD4 nanobody

One assay concerns the target T1, CD4 on the surface of HEK293 cells transfected with pCAGGS-CD4-myc (UniProt P01730 26-458, limits assumed).
T1 construct: whole, on cells; Cells were fixed with 4% paraformaldehyde before staining; also called CD4 surface expressing cells
The assay is described as follows: immunofluorescence staining of fixed CD4-expressing HEK293 cells, anti-FLAG-AF488 secondary.
For B1, the binding result is “no binding (tested: 3.3 µg/ml)”.

For a further assay, the target named is T2, recombinant human sCD4 CF (manufactured by R&D Systems) (human, UniProt P01730 26-390, limits assumed).
T2 construct: Immobilized on the Biacore sensor chip; also called recombinant CD4; CD4 antigen
Briefly: SPR, Biacore T-200, CD4 immobilized on chip, as in Example 2. For orientation: In SPR one partner is held on a chip, and binding of the other changes the refractive index at the surface.
As a reminder, the Kd is the equilibrium constant for the complex coming apart. What is called koff is the rate constant with which the complex falls apart. The term kon denotes the rate constant with which the complex forms. For B2, the Kd was 26 nM, the koff is 0.0037 s⁻¹ and the kon was 140000 M⁻¹ s⁻¹.
Consider B3, for which the Kd came out at 26 nM, the koff was determined as 0.0036 s⁻¹ and the kon is 140000 M⁻¹ s⁻¹.
The matching figures for B4: 21 nM, 0.003 s⁻¹ and 140000 M⁻¹ s⁻¹.
For B5 the same measures were 25 nM, 0.0029 s⁻¹ and 120000 M⁻¹ s⁻¹.
Turning to B6, the Kd worked out at 28 nM, the koff was determined as 0.0028 s⁻¹ and the kon was found to be 100000 M⁻¹ s⁻¹.
With B7, the Kd is 28 nM, the koff was 0.0033 s⁻¹ and the on-rate (kon) came to 120000 M⁻¹ s⁻¹.
On to B8, for which the Kd was 24 nM, the dissociation rate constant (koff) came to 0.0028 s⁻¹ and the association rate constant (kon) was determined as 180000 M⁻¹ s⁻¹.
For B9, the Kd turned out to be 24 nM, the koff was determined as 0.0028 s⁻¹ and the kon was 110000 M⁻¹ s⁻¹.
Take B10: the dissociation constant Kd amounted to 19 nM, the dissociation rate constant (koff) turned out to be 0.0029 s⁻¹ and the kon amounted to 160000 M⁻¹ s⁻¹.

The target in another assay is T2, recombinant human sCD4 CF (manufactured …). The assay is described as follows: simultaneous binding assay on CD4-immobilized magnetic beads, barcode cleaved by enterokinase and quantified by LC-MS/MS.
Turning to B1, the binding result is “no binding (tested: 0.1 µM)”.

The target is the same in the next assay. Briefly: SPR, Biacore T-200, antigen immobilized on chip, nanobody as analyte.
B2: the Kd worked out at 42 nM, the koff is 0.0054 s⁻¹ and the kon stood at 68000 M⁻¹ s⁻¹.
For the molecule B11, the Kd was determined as 52 nM, the koff was 0.004 s⁻¹ and the kon was 77000 M⁻¹ s⁻¹.
